Assays:
Experiment in all cases: EMSA
Settings in all cases: 20 mM Tris pH 7.5, 200 mM NaCl, 1 ug salmon sperm DNA, 10 fmol probe, 20 ul, room temperature 10 min; 10% polyacrylamide gel
[1] = target: EBNA1 395-641;USP7 (Epstein-Barr virus;human?) (UniProt P03211+Q93009)
[2] = target: EBNA1 452-641;USP7 (Epstein-Barr virus;human?) (UniProt P03211+Q93009)
[3] = target: T1, EBNA1 395-641 (Epstein-Barr virus) (UniProt P03211)
T1 sequence: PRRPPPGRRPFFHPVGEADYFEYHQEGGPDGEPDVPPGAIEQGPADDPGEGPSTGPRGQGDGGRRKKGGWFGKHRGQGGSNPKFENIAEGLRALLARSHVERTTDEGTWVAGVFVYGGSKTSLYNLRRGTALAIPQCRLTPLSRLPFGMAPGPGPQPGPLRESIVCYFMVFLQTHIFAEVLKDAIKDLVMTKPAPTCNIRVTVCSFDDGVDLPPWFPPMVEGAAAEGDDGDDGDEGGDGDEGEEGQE

Chain of EBNA1 452-641;USP7 (Epstein-Barr virus;human?) (Q93009 whole entry, one chain of several): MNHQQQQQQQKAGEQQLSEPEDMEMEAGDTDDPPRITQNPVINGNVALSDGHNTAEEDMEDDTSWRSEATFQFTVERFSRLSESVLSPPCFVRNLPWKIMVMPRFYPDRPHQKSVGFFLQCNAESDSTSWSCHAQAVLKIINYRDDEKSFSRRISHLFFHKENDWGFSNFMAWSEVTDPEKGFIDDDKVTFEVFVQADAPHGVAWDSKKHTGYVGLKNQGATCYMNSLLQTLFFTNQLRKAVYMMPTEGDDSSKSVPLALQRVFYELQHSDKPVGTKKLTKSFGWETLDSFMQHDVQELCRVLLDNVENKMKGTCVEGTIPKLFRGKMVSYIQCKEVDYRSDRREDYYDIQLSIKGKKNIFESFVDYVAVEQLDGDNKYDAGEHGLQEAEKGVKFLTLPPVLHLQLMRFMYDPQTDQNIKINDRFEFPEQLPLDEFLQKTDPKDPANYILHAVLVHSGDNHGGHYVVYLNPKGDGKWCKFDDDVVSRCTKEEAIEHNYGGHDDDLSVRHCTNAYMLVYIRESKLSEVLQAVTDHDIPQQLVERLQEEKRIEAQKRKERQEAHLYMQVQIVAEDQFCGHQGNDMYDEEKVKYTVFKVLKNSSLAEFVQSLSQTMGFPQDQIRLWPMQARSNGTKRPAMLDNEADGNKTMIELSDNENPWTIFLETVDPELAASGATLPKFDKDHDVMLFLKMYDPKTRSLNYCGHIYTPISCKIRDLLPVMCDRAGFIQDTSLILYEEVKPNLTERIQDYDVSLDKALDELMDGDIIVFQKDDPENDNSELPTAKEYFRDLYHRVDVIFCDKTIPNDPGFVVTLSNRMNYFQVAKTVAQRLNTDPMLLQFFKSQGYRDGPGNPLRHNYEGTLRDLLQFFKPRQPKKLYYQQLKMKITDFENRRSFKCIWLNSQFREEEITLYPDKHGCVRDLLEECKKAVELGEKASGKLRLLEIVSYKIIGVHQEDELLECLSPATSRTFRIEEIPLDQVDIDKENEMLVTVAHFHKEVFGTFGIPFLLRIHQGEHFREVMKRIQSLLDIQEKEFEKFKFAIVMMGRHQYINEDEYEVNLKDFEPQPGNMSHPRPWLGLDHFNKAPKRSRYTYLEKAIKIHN
Chain of EBNA1 395-641;USP7 (Epstein-Barr virus;human?) (Q93009 whole entry, one chain of several): as above

“CGGGAAGCATATGCTACCCG (double strand) [DS site 1 20-mer]” gave a Kd [1] of 4 nM, a binding signal (fold increase vs P3 alone) [2] of 4 and a Kd [3] of 233 nM.

Reference: paper PMC2757719
